From paper PMC12164381

Experiments:
Assay in all cases: SPR
[1] = molecular target: SARS-CoV-2 Spike RBD, original (Wuhan) strain (SARS-CoV-2, original Wuhan strain) (UniProt P0DTC2)
[2] = molecular target: Inverse folding design from the DXP-604 starting point (Table 5, design row 3, the 5th table, row 6)
[3] = molecular target: Inverse folding design from the DXP-604 starting point (Table 5, design row 7, the 5th table, row 10)
[4] = molecular target: OAS scanning design from the DXP-604 starting point (Table 2, 1st design row, the 2nd table, row 8)
[5] = molecular target: Inverse folding design from the DXP-604 starting point (Table 5, design row 2, the 5th table, row 5)
[6] = molecular target: Inverse folding design from the DXP-604 starting point (Table 5, design row 6, the 5th table, row 9)
[7] = molecular target: Inverse folding design from the DXP-604 starting point (Table 5, design row 5, the 5th table, row 8)
[8] = molecular target: Inverse folding design from the DXP-604 starting point (Table 5, design row 4, the 5th table, row 7)
[9] = molecular target: Inverse folding design from the DXP-604 starting point (Table 5, design row 1, the 5th table, row 4)
[10] = molecular target: Efficient evolution design from the S309 starting point (Table 4, design row 1, the 4th table, row 4)
S309 = molecular target: S309
[11] = molecular target: Efficient evolution design from the S309 starting point (Table 4, design row 2, the 4th table, row 5)
[12] = molecular target: Inverse folding design from the LY-CoV1404 starting point (Table 5, design row 1, the 5th table, row 12)
[13] = molecular target: Inverse folding design from the LY-CoV1404 starting point (Table 5, design row 2, the 5th table, row 13)
[14] = molecular target: Efficient evolution design from the S309 starting point (Table 4, design row 5, the 4th table, row 8)
BD55–5840 = molecular target: BD55–5840
DXP-604 = molecular target: DXP-604
[15] = molecular target: Efficient evolution design from the S309 starting point (Table 4, design row 6, the 4th table, row 9)
[16] = molecular target: Efficient evolution design from the S309 starting point (Table 4, design row 3, the 4th table, row 6)
[17] = molecular target: OAS scanning design from the DXP-604 starting point (Table 2, 2nd design row, the 2nd table, row 9)

DXP-604 (antibody)
pKD [1]: 9.67 -log10(KD)

SARS-CoV-2 Spike RBD, XBB.1 strain (from UniProt P0DTC2) (domain or fragment)
pKD [2]: 5.12 -log10(KD)
pKD [3]: 6.15 -log10(KD)
pKD [4]: 5.35 -log10(KD)
pKD [5]: 5.99 -log10(KD)
pKD [6]: 6.37 -log10(KD)
pKD [7]: 5.91 -log10(KD)
pKD [8]: 5.84 -log10(KD)
pKD [9]: 5.78 -log10(KD)
pKD [10]: 8.7 -log10(KD)
pKD (S309): 8.93 -log10(KD)

SARS-CoV-2 Spike RBD, XBB.1.5 strain (from UniProt P0DTC2) (domain or fragment)
pKD [11]: 8.93 -log10(KD)
pKD [12]: 4.87 -log10(KD)
pKD [13]: 4.88 -log10(KD)
pKD [4]: 5.87 -log10(KD)
pKD [14]: 9.12 -log10(KD)
pKD (BD55–5840): 6.14 -log10(KD)
pKD (DXP-604): 5.84 -log10(KD)
pKD [10]: 8.89 -log10(KD)

SARS-CoV-2 Spike RBD, original (Wuhan) strain (from UniProt P0DTC2) (domain or fragment)
pKD [15]: 8.7 -log10(KD)
pKD [16]: 8.7 -log10(KD)
pKD [4]: 9.07 -log10(KD)
pKD [17]: 9.38 -log10(KD)
pKD [10]: 8.7 -log10(KD)
